Laboratory results from paper PMC8204306 (ACS Infectious Diseases, 2021).

How the values were obtained:
ChsB1 = ChsB1 (Mycobacterium tuberculosis, UniProt O53547)
purified protein [1] = substrate: CC(=CCC[C@@H](C)[C@H]1CC[C@H]2[C@@H]3CCC4=CC(=O)CC[C@]4(C)[C@H]3CC[C@]12C)C(=O)SCCNC(=O)CCNC(=O)[C@H](O)C(C)(C)COP(=O)(O)OP(=O)(O)OC[C@H]1O[C@@H](n2cnc3c(N)ncnc32)[C@H](O)[C@@H]1OP(=O)(O)O; assay: purified protein; conditions: pH 7.4; 25.0 °C
purified protein [2] = substrate: CCCCC/C=C/C(=O)SCCNC(=O)CCNC(=O)[C@H](O)C(C)(C)COP(=O)(O)OP(=O)(O)OC[C@H]1O[C@@H](n2cnc3c(N)ncnc32)[C@H](O)[C@@H]1OP(=O)(O)O; assay: purified protein; conditions: pH 7.4; 25.0 °C
purified protein [3] = substrate: C[C@H](/C=C/C(=O)SCCNC(=O)CCNC(=O)[C@H](O)C(C)(C)COP(=O)(O)OP(=O)(O)OC[C@H]1O[C@@H](n2cnc3c(N)ncnc32)[C@H](O)[C@@H]1OP(=O)(O)O)[C@H]1CC[C@H]2[C@@H]3CCC4=CC(=O)CC[C@]4(C)[C@H]3CC[C@]12C; assay: purified protein; conditions: pH 7.4; 25.0 °C
purified protein [4] = substrate: CCCCC[C@@H](O)CC(=O)SCCNC(=O)CCNC(=O)[C@H](O)C(C)(C)COP(=O)(O)OP(=O)(O)OC[C@H]1O[C@@H](n2cnc3c(N)ncnc32)[C@H](O)[C@@H]1OP(=O)(O)O; assay: purified protein; conditions: pH 8.5; 25.0 °C
purified protein [5] = substrate: C[C@@H]([C@H]1CC[C@H]2[C@@H]3CCC4=CC(=O)CC[C@]4(C)[C@H]3CC[C@]12C)[C@@H](O)CC(=O)SCCNC(=O)CCNC(=O)[C@H](O)C(C)(C)COP(=O)(O)OP(=O)(O)OC[C@H]1O[C@@H](n2cnc3c(N)ncnc32)[C@H](O)[C@@H]1OP(=O)(O)O; assay: purified protein; conditions: pH 8.5; 25.0 °C
purified protein [6] = substrate: C[C@H](C(=O)CC(=O)SCCNC(=O)CCNC(=O)[C@H](O)C(C)(C)COP(=O)(O)OP(=O)(O)OC[C@H]1O[C@@H](n2cnc3c(N)ncnc32)[C@H](O)[C@@H]1OP(=O)(O)O)[C@H]1CC[C@H]2[C@@H]3CCC4=CC(=O)CC[C@]4(C)[C@H]3CC[C@]12C; assay: purified protein; conditions: pH 8.5; 25.0 °C
purified protein [7] = substrate: C[C@]12CC[C@H]3[C@@H](CCC4=CC(=O)CC[C@@]43C)[C@@H]1CC[C@@H]2O; assay: purified protein; conditions: pH 8.5; 25.0 °C
purified protein [8] = substrate: NC(=O)C1=CN([C@@H]2O[C@H](COP(=O)(O)OP(=O)(O)OC[C@H]3O[C@@H](n4cnc5c(N)ncnc54)[C@H](O)[C@@H]3O)[C@@H](O)[C@H]2O)C=CC1; assay: purified protein; conditions: pH 8.5; 25.0 °C; varied: cofactor
purified protein [9] = substrate: NC(=O)c1ccc[n+]([C@@H]2O[C@H](COP(=O)(O)OP(=O)(O)OC[C@H]3O[C@@H](n4cnc5c(N)ncnc54)[C@H](O)[C@@H]3O)[C@@H](O)[C@H]2O)c1; assay: purified protein; conditions: pH 8.5; 25.0 °C; varied: cofactor

Molecule: NC(=O)c1ccc[n+]([C@@H]2O[C@H](COP(=O)(O)OP(=O)(O)OC[C@H]3O[C@@H](n4cnc5c(N)ncnc54)[C@H](O)[C@@H]3O)[C@@H](O)[C@H]2O)c1 [NAD^+]
- X-ray co-crystal structure, 2.21 Å (ChsB1): Co-crystallization of NAD^+ and ChsB1 yielded cubic crystals by sitting drop vapor diffusion

B1: ChsH3 (Mycobacterium tuberculosis H37Rv) (protein)
chain: MPIDLDVALGAQLPPVEFSWTSTDVQLYQLGLGAGSDPMNPRELSYLADDTPQVLPTFGNVAATFHLTTPPTVQFPGIDIELSKVLHASERVEVPAPLPPSGSARAVTRFTDIWDKGKAAVICSETTATTPDGLLLWTQKRSIYARGEGGFGGKRGPSGSDVAPERAPDLQVAMPILPQQALLYRLCGDRNPLHSDPEFAAAAGFPRPILHGLCTYGMTCKAIVDALLDSDATAVAGYGARFAGVAYPGETLTVNVWKDGRRLVASVVAPTRDNAVVLSGVELVPA
- Km (purified protein [1]): 12 ± 6 µM
- kcat/Km (purified protein [1]): 120000 M⁻¹ s⁻¹
- Km (purified protein [2]): 112 ± 12 µM
- kcat/Km (purified protein [2]): 1.5e+06 M⁻¹ s⁻¹
- Km (purified protein [3]): 55 ± 5 µM
- kcat/Km (purified protein [3]): 2e+06 M⁻¹ s⁻¹

B2: ChsB1 (Mycobacterium tuberculosis H37Rv) (protein)
chain: MKLTESNRSPRTTNTTDLSGKVAVVTGAAAGLGRAEALGLARLGATVVVNDVASALDASDVVDEIGAAAADAGAKAVAVAGDISQRATADELLASAVGLGGLDIVVNNAGITRDRMLFNMSDEEWDAVIAVHLRGHFLLTRNAAAYWRDKAKDAEGGSVFGRLVNTSSEAGLVGPVGQANYAAAKAGITALTLSAARALGRYGVCANVICPRARTAMTADVFGAAPDVEAGQIDPLSPQHVVSLVQFLASPAAAEVNGQVFIVYGPQVTLVSPPHMERRFSADGTSWDPTELTATLRDYFAGRDPEQSFSATDLMRQ
- Km (purified protein [4]): 169 ± 21 µM
- kcat/Km (purified protein [4]): 15000 M⁻¹ s⁻¹
- Km (purified protein [5]): 5.3 ± 1 µM
- kcat/Km (purified protein [5]): 1.7e+06 M⁻¹ s⁻¹
- Km (purified protein [6]): 25 ± 5 µM
- kcat/Km (purified protein [6]): 64000 M⁻¹ s⁻¹
- Km (purified protein [7]): 369 ± 75 µM
- kcat/Km (purified protein [7]): 810 M⁻¹ s⁻¹
- Km (purified protein [8]): 40 ± 6 µM
- Km (purified protein [9]): 70 ± 10 µM
